Measured values from patent publication US20030008857A1, “Photodynamic therapy (PDT) in combination with factors that bind cell surface apoptosis-inducing receptors” (priority 1999, published 2003).
Entries after “also recorded” stand apart in the source; their conditions may differ.

What was measured:
Assay type in all cases: cell-based, human
[1] = test system: caspase-3, -6 and -8; assay: Caspase cleavage activity of cell extracts, statements covering DEVD, VEID and IETD peptides together
Method: (§1) The human Jurkat T cell line containing a neomycin resistance gene was obtained from Dr. Charles Rudin (University of Chicago). Cells were maintained in RPMI 1640 medium containing 10% heat-inactivated fetal calf serum (FCS) with penicillin (100 U/mL), streptomycin (100 μg/mL), 20 mM HEPES, 2 mM L-glutamine and G418 (1 μg/ml) purchased from Gibco BRL (Burlington, Ontario) in a CO2 incubator at 37° C. To elicit apoptosis with PDT, Jurkat cells were incubated with different amounts of liposomally formulated benzoporphyrin derivative monoacid ring A (BPD-MA, verteporfin, QLT PhotoTherapeutics, Inc., Vancouver, Canada) for one hour at 37° C. under light-protected conditions. The culture medium used for experiments was identical to that used for the passage of the cells except that FCS was used at a concentration of 5%. Experiments were conducted either in 6-well culture plates at 5×10^6 cells in a volume of 4 ml per well or in 96-well microtiter plates at 1×10^5 cells per well at 0.2 ml per well. Cells were irradiated with light of a wavelength of 690 nm delivered at 65-73 mW/sec from light emitting diodes (LED) to achieve a total light dose of 5 J/cm^2. Cells were returned to the incubator until required for analysis.
(§2) FasL and TRAIL as used were recombinant preparations. FasL was obtained from Upstate Biotechnology (Lake Placid NY) and corresponded to amino acids 103-281 of the soluble domain of human FasL. TRAIL was obtained from BIOMOL Research Laboratories (Plymouth Meeting, Pa.) and corresponded to residues 114-281 of the soluble domain of human TRAIL. FasL and TRAIL were usually added immediately following the treatment of cells with PDT, although in one series of experiments these factors were added at 1, 2 or 3 hours post-irradiation.
Whole cell lysates were prepared by washing 1×10^7 cells per sample twice with ice-cold PBS. Cells were disrupted with 1 mL of lysis buffer [1% Nonidet P-40 detergent (NP-40), 20 mM Tris-HCl, pH 8.0, 137 mM NaCl, 10% glycerol, 1 mM phenylmethylsulfonyl fluoride (PMSF) aprotinln (0.15 U/mL) and 1 mM sodium orthovanadate] for 20 minutes on ice. Lysates were centrifuged for 10 minutes at 15,800×g at 4° C.
These sequences are denoted by letter codes for each amino acid. To evaluate relative DEVDase (caspases 3 and 7), VEIDase (caspase 6) and IETDase (caspase 8) cleavage activity, Jurkat cell lysates were incubated with caspase-specific fluorescent substrates as described by Granville et al. (“Photodynamic therapy induces caspase-3 activation in HL-60 cells”, Cell Death Differ., 4, 623-629 (1997)). Briefly, lysates were incubated with reaction buffer (20 mM Tris pH 7.5, 137 mM NaCl, 1% NP-40, 10% glycerol) containing 100 μM of the caspase substrates Ac-DEVD-AMC (Calbiochem, Cambridge, Mass.), Ac-VEID-AMC (Calbiochem, Cambridge, Mass.), Ac-lETD-AMC (BIOMOL, Plymouth Meeting Pa.), and Ac-LEHD-AMC (Calbiochem, Cambridge, Mass.). The letter codes for the amino acid residues present within the inhibitor peptides are as following: D=aspartic acid; E=glutamic acid; H=histidine; I=isoleucine; T=threonine; V=valine. The reaction mixture was incubated at 37° C. for 1 (DEVD.AMC) or 24 (VEID.AMC and IETH.AMC) h and fluorescence was measured using an excitation at 380 nm and an emission wavelength of 460 nm with a CytoFluor™ 2350 fluorescent measuring system (Perseptive Biosystems, Burlington, Ont).

[2] = test system: cytochrome c; assay: Cytochrome c in cytosolic extracts of Jurkat cells (immunoblot); settings: 3 hours
Method: as §1
(§3) FasL and TRAIL as used were recombinant preparations. […]

[3] = test system: caspase-3, -6, -8 and -9 and PARP; assay: Western immunoblot of caspase processing and PARP cleavage in Jurkat cells; settings: 3 hours
Method: as §1, §3

[4] = test system: IETDase (caspase 8); assay: Protease assay of cell extracts with Ac-IETD-AMC; settings: FasL 7.5 ng/ml, 3 hours, Jurkat whole cell extracts
Method: as §1, with “Cells were irradiated with light of a wavelength of 690 nm delivered at 65-73 mW/sec from light emitting diodes (LED) to achieve a total light dose of 5 J/cm^2. Cells were returned to the incubator until required for analysis.” left out
(§4) These sequences are denoted by letter codes for each amino acid. […] The reaction mixture was incubated at 37° C. for 1 (DEVD.AMC) or 24 (VEID.AMC and IETH.AMC) h and fluorescence was measured using an excitation at 380 nm and an emission wavelength of 460 nm with a CytoFluor™ 2350 fluorescent measuring system (Perseptive Biosystems, Burlington, Ont).

[5] = test system: VEIDase (caspase 6); assay: Protease assay of cell extracts with Ac-VEID-AMC; settings: FasL 7.5 ng/ml, 3 hours, Jurkat whole cell extracts
Method: as §1, with “Cells were irradiated with light of a wavelength of 690 nm delivered at 65-73 mW/sec from light emitting diodes (LED) to achieve a total light dose of 5 J/cm^2. Cells were returned to the incubator until required for analysis.” left out
as §4

[6] = test system: Jurkat T cells; assay: DNA fragmentation (sub-diploid DNA) by PI staining and flow cytometry
Method: as §1, §2
The proportion of cells containing sub-diploid levels of DNA 24 hours following treatment was determined using a propidium iodide (“PI”) fluorescence analysis procedure as described by Telford et al. (“Rapid Quantitation of Apoptosis in Pure and Heterogeneous Cell Populations Using Flow Cytometry” J. Immunol Methods 172:1-6 (1994)) or by Darzynkieicz et al. (“Features of Apoptotic Cells Measured by Flow Cytometry”, Cytometry, 13:795-808 (1992)).
Twenty four hours following PDT, 5×10^5 cells were washed twice with ice-cold PBS and then permeablized and fixed in 80% ethanol at 4° C. for one hour. The cells were again washed in ice-cold PBS and stained with PI (50 μg/mL) in PBS with simultaneous deoxyribose nuclease-free ribonuclease A (5 U/mL) treatment. These samples were analyzed by flow cytometry. The percentage of apoptotic cells was calculated using single color analysis for PI fluorescence with a Coulter XL flow cytometer (Coulter Electronics, Inc., Hialeah, Fla.). […] The degree of separation between the apoptotic population and the G0/G1 peak is readily apparent and the percentage of apoptotic cells is determined from the subsequent histogram.

[7] = test system: DEVDase (caspases 3 and 7); assay: Protease assay of cell extracts with Ac-DEVD-AMC; settings: FasL 7.5 ng/ml, 3 hours, Jurkat whole cell extracts
Method: as §1, with “Cells were irradiated with light of a wavelength of 690 nm delivered at 65-73 mW/sec from light emitting diodes (LED) to achieve a total light dose of 5 J/cm^2. Cells were returned to the incubator until required for analysis.” left out
as §4

[8] = FasL 7.5 ng/ml or TRAIL 20 ng/ml

B1: FasL: recombinant, amino acids 103-281 of the soluble domain of human FasL (Upstate Biotechnology) (protein, UniProt P48023 103-281, looked up, fragment)
chain: QLFHLQKELAELRESTSQMHTASSLEKQIGHPSPPPEKKELRKVAHLTGKSNSRSMPLEWEDTYGIVLLSGVKYKKGGLVINETGLYFVYSKVYFRGQSCNNLPLSHKVYMRNSKYPQDLVMMEGKMMSYCTTGQMWARSSYLGAVFNLTSADHLYVNVSELSLVNFEESQTFFGLYKL
caspase activity compared with the treatments given independently ([1]; FIG. 7: factor combined with PDT (verteporfin 5 ng/ml, 5 J/cm^2), 3 hours): higher caspase activity | protease activity on DEVD, VEID and IETD peptides, single treatment ([1]; FIG. 7: verteporfin 5 ng/ml with light, FasL 7.5 ng/ml or TRAIL 20 ng/ml alone, 3 hours): modestly increased | nature of the combined effect on caspase cleavage activity ([1]; FasL 7.5 ng/ml plus PDT at verteporfin 5 ng/ml): greater than additive effect | caspase cleavage activity levels relative to PDT or FasL applied independently ([1]; FasL 7.5 ng/ml plus PDT at verteporfin 5 ng/ml, 3 hours): 2-5 fold | protease activity compared with FasL or TRAIL alone ([1]; factor plus verteporfin in the absence of light irradiation): no different | cytochrome c in cytosolic extracts, factor alone [2, 8]: background levels of cytochrome c | cytochrome c in cytosolic extracts, factor with PDT ([2]; PDT in combination with TRAIL 20 ng/ml or FasL 7.5 ng/ml): readily detectable amounts of cytochrome c | caspase processing and PARP degradation compared with PDT or the factor alone ([3]; FasL 7.5 ng/ml or TRAIL 20 ng/ml combined with verteporfin PDT): more extensive caspase processing and PARP degradation; also recorded: a higher degree of processing | processing of caspases and PARP by the factor alone [3, 8]: little or no processing; also recorded: little detectable processing | increase in IETDase-like activity versus control cells [4]: one-and-half fold | increase in VEIDase-like cleavage activity versus control cells [5]: approximately two-fold | increase in proportion of cells with sub-diploid DNA versus light-treated control cells ([6]; FasL 7.5 ng/ml added after PDT with verteporfin 2 ng/ml, 5 J/cm^2, 24 hours): twelve-fold | increase in the number of cells displaying DNA fragmentation ([6]; FasL 7.5 ng/ml by itself, 24 hours (FIG. 2)): seven-fold | cells with induced DNA fragmentation ([6]; FasL 200 ng/ml, within 24 hours): approximately 60% | proportion of cells with sub-diploid DNA compared with PDT alone ([6]; TRAIL 20 ng/ml or FasL 7.5 ng/ml added after PDT with verteporfin 0.5 and 1 ng/ml): a greater proportion of cells contained a sub-diploid level of DNA | DNA fragmentation induced by the factor without PDT across addition times ([6]; added at 5 minutes, 1, 2 or 3 hours, FasL 7.5 ng/ml, TRAIL 20 ng/ml, individually or in combination): a comparable level of DNA fragmentation | change of the combined effect with PDT on DNA fragmentation ([6]; factor added at 3 hours post-PDT (verteporfin 2 ng/ml)): a modest decline | capacity to accentuate PDT-mediated apoptosis (DNA fragmentation) ([6]; factor added up to 3 hours after PDT (verteporfin 2 ng/ml), FasL 7.5 ng/ml, TRAIL 20 ng/ml): still demonstrable | increase in DEVDase-like cleavage activity versus control cells [7]: approximately two-fold
